# B1: Escherichia coli ecYfcG, Nu-class glutathione-S-transferase, wild type, SEQ ID NO:30 (Escherichia coli K-12) (protein)
# chain: MIDLYFAPTPNGHKITLFLEEAELDYRLIKVDLGKGGQFRPEFLRISPNNKIPAIVDHSPADGGEPLSLFESGAILLYLAEKTGLFLSHETRERAATLQWLFWQVGGLGPMLGQNHHFNHAAPQTIPYAIERYQVETQRLYHVLNKRLENSPWLGGENYSIADIACWPWVNAWTRQRIDLAMYPAVKNWHERIRSRPATGQALLKAQLGDERSDS
# notes: E. coli B834
# B2: ecYfcG: Nu-class GST from Escherichia coli DH5a, SEQ ID NO:30 (protein, listed as Escherichia coli)
# chain: B1 chain
# B3: Novosphingobium aromaticivorans DSM 12444 NaGSTNu (Saro_2595), Nu-class glutathione-S-transferase, wild type, SEQ ID NO:18; recombinant, residues 21-313 of SEQ … (protein)
# chain: MSSEYVPPKVWKWDKANGGAFASVNRPVAGPTSERELPVGKHPFQVYSLGTPNGQKATIMLEELLQLGFSEAEYDAWLIKIFEGDQFTSGFVDINPNSKIPAMVDRSGPEPFRVFESGAILMHLAEKFGVFLPTSGPARAECLSWLFWQVGSAPFIGGGFGHFYNYAPIKIEYAIDRYAMETKRLFDVANRRLAESRYLAGDEYTIADLATYTWFGNIYRGEAYGEAATFLSMHEYEHVGRWVGEIDARPGVLRGRLVNSSKGLAERHDASDFDALPPESLQAIVKGF
# notes: E. coli B834
# Assays:
# [1] = substrate: COc1cc(C(=O)[C@@H](CO)SC[C@H](NC(=O)CC[C@H](N)C(=O)O)C(=O)NCC(=O)O)ccc1O; assay: Kinetics of GS-HPV cleavage into HPV by ecYfcG; format: biochemical, Escherichia coli DH5α; details: other: GS-HPV into HPV, 195 nM enzyme, GSH, pH 8.5, 25° C.
# From the text: (§1) Enzyme purifications. Genes Saro_2595, E. coli yghU, E. coli yfcG, and SLG_04120 from Sphingobium sp. SYK-6 (codon-optimized for expression in E. coli) were individually cloned into plasmid pVP302K (Gall and Ralph et al. 2014) so that transcripts from the plasmids would be translated into proteins containing a His8-tag connected to the N-terminus via a tobacco etch virus (TEV) protease recognition site. Recombinant proteins were expressed in E. coli B834 (Wood 1966, Doherty et al. 1995) containing plasmid pRARE2 (Novagen, Madison, Wis.) grown for ˜24 h at 27° C. in ZYM-5052 Autoinduction Medium (Studier 2005) containing kanamycin and chloramphenicol. Recombinant proteins were purified essentially as described previously (Gall and Kim et al. 2014); see below for modifications to the procedure. After removal of His8-tags using TEV protease, recombinant proteins retained a Ser-Ala-Ile-Ala-Gly-peptide on their N-termini, derived from the linker between the protein and the TEV protease recognition site. Recombinant LigE and LigF1 from N. aromaticivorans were purified as previously described (Gall and Ralph et al. 2014).
# (§2) Kinetics analysis of GS-HPV cleavage. The Reaction Buffer (RB) consisted of 25 mM Tris-HCl (pH 8.5) and 25 mM NaCl. The β(R)- and β(S)-stereoisomers of GS-HPV were separately generated by incubating racemic MPHPV (0.46 mM) in RB with 5 mM reduced glutathione (GSH) and either 38 μg/mL LigF1 or 36 μg/mL LigE, respectively, for several h. This sample, containing a single GS-HPV stereoisomer, guaiacol, and the unreacted MPHPV stereoisomer, was diluted with RB to achieve the desired concentration of GS-HPV for the time course reaction (0.005, 0.011, 0.022, 0.096, or 0.193 mM). An additional 5 mM GSH (dissolved in RB) was added prior to initiation of each time course. At time zero, 100 μL of the indicated enzyme sample (resuspended in RB) was combined with 1800 μL of the diluted GS-HPV reaction mixture to achieve final concentrations of 8 nM NaGSTNu, 195 nM ecYghU, 195 nM ecYfcG, or 47 nM (for β(R)-GS-HPV reactions) or 18 nM (for β(S)-GS-HPV reactions) SYK6GSTNu. Assays were performed at 25° C., and at specified time points, 300 μL of the reaction was removed and combined with 100 μL 1 M HCl (Acros Organics; Geel, Belgium) to stop the reaction before HPLC analysis to quantify HPV formed.
# (§3) HPLC analysis. After extracellular aromatics were identified using LC-MS, routine analysis and quantification of aromatics were performed using an Ultra AQ C18 5 μm column (Restek, Bellefonte, Pa.) attached to a System Gold HPLC (Beckman Coulter, Brea, Calif.) with running buffers and chromatography conditions described in FIG. 14. The eluent was analyzed for light absorbance between 191 and 600 nm, and absorbances at 280 nm were used for quantification of aromatic metabolites by comparing peak areas to those of standards (retention times of measured metabolites are shown in FIG. 15).
# [2] = substrate: COc1cc(C(=O)[C@H](CO)SC[C@H](NC(=O)CC[C@H](N)C(=O)O)C(=O)NCC(=O)O)ccc1O; assay: Kinetics of GS-HPV cleavage into HPV by ecYfcG; format: biochemical, Escherichia coli DH5α; details: other: GS-HPV into HPV, 195 nM enzyme, GSH, pH 8.5, 25° C.
# From the text: as §1, §2, §3
# [3] = Kinetics of GS-HPV cleavage, comparisons between enzymes over both stereoisomers; format: biochemical
# Protocol: as §2, §3
# [4] = substrate: COc1cc(C(=O)[C@@H](CO)SC[C@H](NC(=O)CC[C@H](N)C(=O)O)C(=O)NCC(=O)O)ccc1O; assay: Kinetics of GS-HPV cleavage into HPV by NaGSTNu; format: biochemical, Novosphingobium aromaticivorans DSM 12444; details: other: GS-HPV into HPV, 8 nM enzyme, GSH, pH 8.5, 25° C.
# From the text: as §1, §2, §3
# [5] = substrate: COc1cc(C(=O)[C@H](CO)SC[C@H](NC(=O)CC[C@H](N)C(=O)O)C(=O)NCC(=O)O)ccc1O; assay: Kinetics of GS-HPV cleavage into HPV by NaGSTNu; format: biochemical, Novosphingobium aromaticivorans DSM 12444; details: other: GS-HPV into HPV, 8 nM enzyme, GSH, pH 8.5, 25° C.
# From the text: as §1, §2, §3
molecule,measurement,setting,value
B1,Km,[1],160 µM
same,kcat,[1],0.04 s⁻¹
same,kcat/Km,[1],200 M⁻¹ s⁻¹
same,Km,[2],130 µM
same,kcat,[2],0.017 s⁻¹
same,kcat/Km,[2],140 M⁻¹ s⁻¹
B2,"KM, fold higher than those of ecYghU",[3],~10 fold
same,"kcat, fold lower than those of ecYghU",[3],~10 fold
same,"kcat/KM with GS-HPV, fold lower than for ecYghU",[3],~100 fold
same,"kcat/KM with GS-HPV, fold lower than those of NaGSTNu",[3],~10^4 fold
B3,Km,[4],40 µM
same,kcat,[4],80 s⁻¹
same,kcat/Km,[4],1.9e+06 M⁻¹ s⁻¹
same,Km,[5],8 µM
same,kcat,[5],57 s⁻¹
same,kcat/Km,[5],8e+06 M⁻¹ s⁻¹
